According to patent US10208121B2, “Anti-Axl antagonistic antibodies” (BERGEN TEKNOLOGIOVERFORING AS, priority 2014, dated 2019):

Legend:
[1] = biological target: T1, human Axl (rhAxl-Fc chimera) (Homo sapiens, UniProt P30530); experiment: Biacore binding analysis on immobilized human Axl; settings: 10 μg/mL, 25° C.
T1 construct: Soluble recombinant antigens corresponding to the extracellular domains of members of the human TAM receptor family; purchased R&D Systems 154-AL
Experimental: (§1) All binding experiments were performed using Biacore 3000 instrument (GE Healthcare) at 25° C. Soluble recombinant antigens corresponding to the extracellular domains of members of the human TAM receptor family, Axl (rhAxl-Fc chimera; R&D Systems, Cat. no. 154-AL), Mer (rhMer-Fc chimera; R&D Systems, Cat. no. 891-MR) and Tyro3 (rhTyro3/Dtk-Fc chimera; R&D Systems, Cat. no. 859-DK) were immobilized on the surface of CM5 sensor chip using amine coupling at the surface density of 393.0, 303.6 and 364.0 resonance units (RU), respectively. The Biacore run was performed in an automatic mode using Binding analysis wizard. Samples containing either MAb 10C9 or MAb 10G5 at concentration 10 μg/mL in HBS-EP buffer (GE Healthcare) were injected over the surfaces with immobilized antigens at flow rate of 30 μL/min for 3 min (association) followed by 5 min dissociation.
(§2) The binding experiments were performed using Biacore 3000 instrument (GE Healthcare) at 25° C. The soluble recombinant antigens corresponding to human Axl (rhAxl-Fc chimera; R&D Systems, Cat. no. 154-AL), mouse Axl (rmAxl-Fc chimera; R&D Systems, R&D Systems; Cat. no. 854-AX) and human Tyro3 (rhTyro3/Dtk-Fc chimera; R&D Systems, Cat. no. 859-DK) were immobilized on the surface of CM5 sensor chip using amine coupling at the surface density of 1,308.0, 2,115.9 and 1,429.0 RU, respectively. The Biacore runs were performed in an automatic mode using Binding analysis wizard.
(§3) The sample containing either MAb 10C9, MAb 10G5 or recombinant mouse (rm) Axl-ligand Gas6 (R&D Systems, Cat. no. 986-GS/CF) at concentration 10 μg/mL in HBS-EP buffer (GE Healthcare) was injected over the surfaces with immobilized antigens at flow rate of 30 μL/min for 3 min (association) followed by 5 min dissociation.
The sequence of Axl receptor from cynomolgus monkey (Macaca fascicularis; SEQ ID NO.43) was retrieved from WO2009062690A1. Based on the sequence, recombinant extracellular domain of cyno-Axl was generated by transient expression in CHO cells as a fusion protein with human Fc. The recombinant cyno-Axl-Fc was purified to homogeneity using Protein A-Sepharose (GE Healthcare). The binding experiments were performed using Biacore 3000 instrument (GE Healthcare) at 25° C. The soluble recombinant antigens corresponding to human Axl (rhAxl-Fc chimera; R&D Systems, Cat. no. 154-AL) and cyno-Axl were immobilized on the surface of CM5 sensor chip using amine coupling at the surface density of 775 and 880 RU, respectively. The Biacore runs were performed in an automatic mode using Binding analysis wizard.
The sample containing either MAb 10C9, MAb 10G5 or human Axl-specific MAb 5F11 (control) at concentration 10 μg/mL in HBS-EP buffer (GE Healthcare) was injected over the surfaces with immobilized antigens at flow rate of 30 μL/min for 3 min (association) followed by 5 min dissociation.
In addition, the Axl-binding properties of the chimeric antibodies c10C9 and c10G5 were tested using Biacore 3000 instrument (GE Healthcare) and a sensor chip CM5 coated with human Axl (rhAxl-Fc chimera; R&D Systems, Cat. no. 154-AL) at the surface density of 1,308.0 RU. The Biacore runs were performed in an automatic mode using Binding analysis wizard. The samples comprising either the chimeric antibodies c10C9 and c10G5 or their murine counterparts at concentration 10 μg/mL in HBS-EP buffer (GE Healthcare) were injected over the surfaces with immobilized antigens at flow rate of 30 μL/min for 3 min (association) followed by 5 min dissociation.

[2] = test system: Axl-positive breast cancer cell line MDA-MB-231; experiment: Flow cytometry binding to Axl-positive MDA-MB-231 cells; type: cell-based, human; settings: different antibody concentrations, MFI
Experimental: Different concentrations of mouse and chimeric antibodies were tested in flow cytometry for binding to triple-negative breast cancer cell line MDA-MB-231. The bound mouse and chimeric antibodies were detected with APC-conjugated donkey F(ab′)2 fragments specific for either mouse IgG (H+L), 1:500 dilution, or human IgG (H+L), 1:300 dilution, respectively (both from Jackson ImmunoResearch). The cell staining was measured using Accuri C6 flow cytometer (BD Biosciences). MFI, geometric mean fluorescence intensity.
The purified chimeric antibodies (>95% purity) were analysed for binding to Axl-positive breast cancer cell line MDA-MB-231 in flow cytometry. For comparison, the parental mouse MAbs 10C9 and 10G5 were used. For flow cytometry, the adherent cells in culture were washed with PBS, detached by treatment with trypsin (0.25%) for 1 min and hitting culture dish for full detachment. Trypsin was quenched by adding into the tissue flask the complete medium followed by washing the cells with PBS. During the washing steps, the cells were collected by centrifugation at 200 g for 5 min. The antibody was diluted for total concentration in PBS containing 0.02% bovine serum albumin (BSA). Cell staining was performed using 200 μL of cell suspension comprising 10^5 cells for 20 min at room temperature. The cell-bound antibodies were detected with APC-conjugated donkey anti-human or anti-mouse, respectively, IgG (H+L) F(ab′)2 fragments (Jackson ImmunoResearch). After two washing steps with PBS/0.02% BSA, the cells were resuspended in 200 μL and kept on ice before analysis on Accuri C6 flow cytometer (BD Biosciences).

[3] = biological target: T2, rhAxl-Fc chimera (recombinant human Axl) (Homo sapiens, UniProt P30530); experiment: Biacore surface plasmon resonance kinetic affinity determination on immobilized rhAxl-Fc; type: binding; settings: chimeric antibodies, rhAxl immobilized on sensor chip, 25° C., 1:1 Langmuir binding model
T2 construct: Soluble recombinant antigens corresponding to the extracellular domains of members of the human TAM receptor family; purchased R&D Systems 154-AL
Experimental: (§4) Kinetic analysis of MAbs 10C9 and 10G5 interacting with rhAxl immobilized on the surface of the Biacore sensor chip. Overlay plots of sensograms for different antibody concentrations (1.3-666.7 nM for 10C9 and 0.3-166.7 nM for 10G5) are shown. The precise kinetic analysis was performed using BIA evaluation software and curve fitting according to 1:1 Langmuir binding model.
as §4, with “chimeric antibodies c10C9” for “MAbs 10C9”, “c10G5” for “10G5”, “c10C9” for “10C9”, “c10G5)” for “10G5)”
(§5) Affinity determination of anti-Axl antibodies 10C9 and 10G5 was performed at 25° C. by surface plasmon resonance measurements using Biacore 3000 instrument (GE Healthcare). As a solid antigen-coated surface, a sensor chip CM5 with immobilized rhAxl-Fc chimera (R&D Systems, Cat. no. 154-AL) at density 190 RU was used.
(§6) For the kinetics measurements, different concentrations of anti-Axl antibodies (from 0.3 to 666.7 nM) in HBS-EP buffer (Biacore, Cat. no. BR-1001-88) were injected at flow rate of 30 μL/min with 3 min injection time followed by 5 min dissociation (buffer alone). After each cycle, the surface was regenerated by 30 sec injection of a regeneration solution (10 mM HCl, 1 M NaCl) at flow rate 50 μL/min.
The kinetic association (on-rate, kon) and dissociation (off-rate, koff) rates were calculated using BIAevaluation software and 1:1 Langmuir binding model. The equilibrium dissociation constant (KD) was calculated as the koff/kon ratio. The half-life (t1/2) of the formed antibody-antigen complexes was calculated as the ln 2/koff ratio.
as §5, with “of the chimeric” for “of”, “c10C9” for “10C9”, “c10G5” for “10G5”
as §6, with “333.3” for “666.7”

[4] = biological target: T3, human Tyro3 (rhTyro3/Dtk-Fc chimera) (Homo sapiens, UniProt Q06418); experiment: Biacore binding analysis on immobilized human Tyro3; settings: 10 μg/mL, 25° C.
T3 construct: Soluble recombinant antigens corresponding to the extracellular domains of members of the human TAM receptor family; purchased R&D Systems 859-DK
T3 sequence (Q06418 41-429 limits assumed): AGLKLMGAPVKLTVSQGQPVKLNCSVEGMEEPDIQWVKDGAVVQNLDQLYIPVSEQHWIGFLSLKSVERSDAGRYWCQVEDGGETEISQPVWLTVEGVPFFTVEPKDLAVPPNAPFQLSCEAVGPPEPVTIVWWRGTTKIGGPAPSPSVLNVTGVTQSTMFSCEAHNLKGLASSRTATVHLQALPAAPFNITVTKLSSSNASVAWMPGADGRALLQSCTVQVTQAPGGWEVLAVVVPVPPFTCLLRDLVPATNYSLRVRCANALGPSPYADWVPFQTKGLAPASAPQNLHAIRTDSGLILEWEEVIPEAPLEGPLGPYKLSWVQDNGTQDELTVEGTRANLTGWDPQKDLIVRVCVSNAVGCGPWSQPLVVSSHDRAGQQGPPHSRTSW
Experimental: as §1, §2, §3

[5] = biological target: T4, mouse Axl (rmAxl-Fc chimera) (Mus musculus, UniProt Q00993); experiment: Biacore binding analysis on immobilized mouse Axl; settings: 10 μg/mL, 25° C.
T4 construct: The soluble recombinant antigens corresponding to human Axl (rhAxl-Fc chimera; R&D Systems, Cat. no; 154-AL), mouse Axl (rmAxl-Fc chimera; purchased R&D Systems 854-AX
T4 sequence (Q00993 19-445 limits assumed, change not shown): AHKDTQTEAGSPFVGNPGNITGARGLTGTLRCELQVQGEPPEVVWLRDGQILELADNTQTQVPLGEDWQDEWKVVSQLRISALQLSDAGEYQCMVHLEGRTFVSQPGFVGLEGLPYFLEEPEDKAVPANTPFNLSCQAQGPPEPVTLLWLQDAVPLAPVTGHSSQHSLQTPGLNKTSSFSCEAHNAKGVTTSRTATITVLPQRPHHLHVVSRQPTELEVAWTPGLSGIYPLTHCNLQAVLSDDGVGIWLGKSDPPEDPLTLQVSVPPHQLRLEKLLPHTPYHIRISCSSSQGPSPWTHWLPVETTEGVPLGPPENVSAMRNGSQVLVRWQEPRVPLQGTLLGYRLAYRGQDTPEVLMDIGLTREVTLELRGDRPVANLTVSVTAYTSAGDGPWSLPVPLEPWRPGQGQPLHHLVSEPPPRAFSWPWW
Experimental: as §2, §3

B1: c10C9: chimeric (mouse variable/human constant) IgG1 counterpart of antibody 10C9 (antibody)
heavy: QVQLQQPGPELVKPGASVKISCKTSDYNFTRYYIHWVKQRPGQGLEWIGWIYPGTGDSKYNEKFKGRATLTADTSSSTAYMQLSSQTSEDSAVYFCARNGNYWYFDVWGAGTAVTVSS
light: DIVMTQAAPSGPVTPGESVSISCRSSKSLLHSNGNTYLYWFLQRPGQSPQLLIYRMSNLASGVPDRFSGSGSGTAFTLRISRVEAEDVGIYYCMQHREYPFTFGGGTKLEIK
modifications: left off: a dimerising Fc or GST
notes: chimeric (mouse variable/human constant) IgG1 counterpart of antibody 10C9
binding to human Axl [1]: bind immobilized Axl with profiles very similar to the binding profiles of the corresponding mouse antibodies
binding to MDA-MB-231 cells in flow cytometry [2]: Dose-dependent binding
Off-rate (koff; s^−1) [3]: 0.000219 s⁻¹
On-rate (kon; M^−1s^−1) [3]: 2.16e+06 M⁻¹ s⁻¹

B2: mouse Gas6: recombinant mouse (rm) Axl-ligand Gas6 (R&D Systems), used as a control (protein)
chain: DQCTPNPCDKKGTHICQDLMGNFFCVCTDGWGGRLCDKDVNECVQKNGGCSQVCHNKPGSFQCACHSGFSLASDGQTCQDIDECTDSDTCGDARCKNLPGSYSCLCDEGYTYSSKEKTCQDVDECQQDRCEQTCVNSPGSYTCHCDGRGGLKLSPDMDTCEDILPCVPFSMAKSVKSLYLGRMFSGTPVIRLRFKRLQPTRLLAEFDFRTFDPEGVLFFAGGRSDSTWIVLGLRAGRLELQLRYNGVGRITSSGPTINHGMWQTISVEELERNLVIKVNKDAVMKIAVAGELFQLERGLYHLNLTVGGIPFKESELVQPINPRLDGCMRSWNWLNGEDSAIQETVKANTKMQCFSVTERGSFFPGNGFATYRLNYTRTSLDVGTETTWEVKVVARIRPATDTGVLLALVGDDDVVPISVALVDYHSTKKLKKQLVVLAVEDVALALMEIKVCDSQEHTVTVSLREGEATLEVDGTKGQSEVSTAQLQERLDTLKTHLQGSVHTYVGGLPEVSVISAPVTAFYRGCMTLEVNGKILDLDTASYKHSDITSHSCPPVEHAT
binding to human Axl [1]: strong binding
binding to human Axl ([1]; listed as murine Gas 6): binds strongly
binding to human Tyro3 [4]: somewhat weaker binding
binding to human Tyro3 ([4]; listed as murine Gas 6): more weakly
binding to mouse Axl [5]: strong binding
binding to mouse Axl ([5]; listed as murine Gas 6): binds strongly
